Target: HLA-B*08:01 (Homo sapiens, UniProt P01889)
Experiment: MHC binding assay (UV-ligand exchange, beta2m ELISA)
Conditions: MHC class I binding score; binding to HLA-B*08:01 ranged by peptide exchange yield (UV-ligand exchange, β2m ELISA)
Text: Candidate peptides for T cell based therapies according to the present invention were further tested for their MHC binding capacity (affinity). The individual peptide-MHC complexes were produced by UV-ligand exchange, where a UV-sensitive peptide is cleaved upon UV-irradiation and exchanged with the peptide of interest as analyzed. Only peptide candidates that can effectively bind and stabilize the peptide-receptive MHC molecules prevent dissociation of the MHC complexes. To determine the yield of the exchange reaction, an ELISA was performed based on the detection of the light chain (β2m) of stabilized MHC complexes. The assay was performed as generally described in Rodenko et al. (Rodenko et al., 2006).
96 well MAXISorp plates (NUNC) were coated over night with 2 ug/ml streptavidin in PBS at room temperature, washed 4× and blocked for 1 h at 37° C. in 2% BSA containing blocking buffer. Refolded HLA-A*02:01/MLA-001 monomers served as standards, covering the range of 15-500 ng/ml. Peptide-MHC monomers of the UV-exchange reaction were diluted 100-fold in blocking buffer. Samples were incubated for 1 h at 37° C., washed four times, incubated with 2 ug/ml HRP conjugated anti-β2m for 1 h at 37° C., washed again and detected with TMB solution that is stopped with […]. Absorption was measured at 450 nm. Candidate peptides that show a high exchange yield (preferably higher than 50%, most preferred higher than 75%) are generally preferred for a generation and production of antibodies or fragments thereof, and/or T cell receptors or fragments thereof, as they show sufficient avidity to the MHC molecules and prevent dissociation of the MHC complexes.

Peptide exchange	Substance
++ (20% = ++)	197 (YKAYPSQL; listed as Homo sapiens) [compound 197]
++ (20% = ++)	206 (MEFPNKFNTL; listed as Homo sapiens) [compound 206]
++ (20% = ++)	234 (VFRVGISF; listed as Homo sapiens) [compound 234]
++ (20% = ++)	191 (RPLKPGEVL; listed as Homo sapiens) [compound 191]
++ (20% = ++)	242 (KPQSLQLVL; listed as Homo sapiens) [compound 242]
+++ (50% = +++)	225 (MPKRAHWGA; listed as Homo sapiens) [compound 225]
++ (20% = ++)	154 (VLKTLQEL; listed as Homo sapiens) [compound 154]
++ (20% = ++)	224 (LPYPPQKVV; listed as Homo sapiens) [compound 224]
++ (20% = ++)	184 (DRLKPLKM; listed as Homo sapiens) [compound 184]
++ (20% = ++)	108 (RSYYHPTNL; listed as Homo sapiens) [compound 108]
+++ (50% = +++)	228 (TLRAYVLAL; listed as Homo sapiens) [compound 228]
++ (20% = ++)	192 (EEKHFTTL; listed as Homo sapiens) [compound 192]
++ (20% = ++)	199 (IPFIHLPEI; listed as Homo sapiens) [compound 199]
++ (20% = ++)	212 (EEYKFPSL; listed as Homo sapiens) [compound 212]
++ (20% = ++)	246 (RLLQKSKEL; listed as Homo sapiens) [compound 246]
++ (20% = ++)	165 (QNSLRHNL; listed as Homo sapiens) [compound 165]
++ (20% = ++)	159 (DLRNKIIA; listed as Homo sapiens) [compound 159]
+++ (50% = +++)	110 (DAMTKHTL; listed as Homo sapiens) [compound 110]
+++ (50% = +++)	235 (SPNSLVTIL; listed as Homo sapiens) [compound 235]
++ (20% = ++)	120 (AQRSEMVTL; listed as Homo sapiens) [compound 120]
+ (0% = +)	135 (EYLETKRLAF; listed as Homo sapiens) [compound 135]
++ (20% = ++)	158 (DVIIKGNGL; listed as Homo sapiens) [compound 158]

Peptide exchange	Substance
++ (20% = ++)	190 (ELLNRIYF; listed as Homo sapiens) [compound 190]
+++ (50% = +++)	125 (FPLVTPLL; listed as Homo sapiens) [compound 125]
++ (20% = ++)	155 (LPASFPAVL; listed as Homo sapiens) [compound 155]
++ (20% = ++)	178 (IPRLAVISI; listed as Homo sapiens) [compound 178]
++ (20% = ++)	248 (SEVNKHETAL; listed as Homo sapiens) [compound 248]
++ (20% = ++)	241 (NAYEAPSI; listed as Homo sapiens) [compound 241]
++ (20% = ++)	168 (HVQDFTAF; listed as Homo sapiens) [compound 168]
++ (20% = ++)	227 (SRFPGMSVL; listed as Homo sapiens) [compound 227]
++ (20% = ++)	107 (LPKGLKDWQA; listed as Homo sapiens) [compound 107]
++ (20% = ++)	247 (TPEPSVHAL; listed as Homo sapiens) [compound 247]
++ (20% = ++)	222 (AQKAELIAL; listed as Homo sapiens) [compound 222]
+++ (50% = +++)	138 (TQHLTVATL; listed as Homo sapiens) [compound 138]
++ (20% = ++)	213 (FPSLFINQF; listed as Homo sapiens) [compound 213]
+++ (50% = +++)	243 (EGVPPGTVL; listed as Homo sapiens) [compound 243]
++ (20% = ++)	170 (SPANVRGQSL; listed as Homo sapiens) [compound 170]
+++ (50% = +++)	198 (FPLTSIIAI; listed as Homo sapiens) [compound 198]
++ (20% = ++)	115 (MRILKRFLAC; listed as Homo sapiens) [compound 115]
++ (20% = ++)	114 (PVKPKFYL; listed as Homo sapiens) [compound 114]
++ (20% = ++)	150 (MRSSYIREL; listed as Homo sapiens) [compound 150]
++ (20% = ++)	203 (DVYTQVSAF; listed as Homo sapiens) [compound 203]
++ (20% = ++)	162 (LFKQTKINL; listed as Homo sapiens) [compound 162]
++ (20% = ++)	216 (EARPPSPAV; listed as Homo sapiens) [compound 216]

More lines, now with the values behind:

Substance	Peptide exchange
43 (DLKKLVDSL; listed as Homo sapiens) [compound 43]	+++ (50% = +++)
67 (DMNTKRAIHTL; listed as Homo sapiens) [compound 67]	++ (20% = ++)
46 (DLRNKIIAA; listed as Homo sapiens) [compound 46]	+++ (50% = +++)
87 (QILQHHVL; listed as Homo sapiens) [compound 87]	+++ (50% = +++)
53 (DLRKLKRQL; listed as Homo sapiens) [compound 53]	++ (20% = ++)
99 (NVKIRFLE; listed as Homo sapiens) [compound 99]	++ (20% = ++)
56 (ILCGSRKMPL; listed as Homo sapiens) [compound 56]	++ (20% = ++)
30 (DLQKKAQAL; listed as Homo sapiens) [compound 30]	++ (20% = ++)
64 (FILGREAGAL; listed as Homo sapiens) [compound 64]	++ (20% = ++)
103 (IANLRVKNI; listed as Homo sapiens) [compound 103]	+++ (50% = +++)
104 (FAFGEPREL; listed as Homo sapiens) [compound 104]	++ (20% = ++)
85 (QKPRKKKL; listed as Homo sapiens) [compound 85]	++ (20% = ++)
50 (TLRLLVAAL; listed as Homo sapiens) [compound 50]	+++ (50% = +++)
2 (QIMPKAGL; listed as Homo sapiens) [compound 2]	+++ (50% = +++)
14 (ELILKRCL; listed as Homo sapiens) [compound 14]	+++ (50% = +++)
12 (DFYLRSSAF; listed as Homo sapiens) [compound 12]	+++ (50% = +++)

Substance	Peptide exchange
106 (HLHLLETSI; listed as Homo sapiens) [compound 106]	++ (20% = ++)
73 (MFPARGVPL; listed as Homo sapiens) [compound 73]	++ (20% = ++)
55 (VLLSRRTAL; listed as Homo sapiens) [compound 55]	++ (20% = ++)
6 (NRQKRFVL; listed as Homo sapiens) [compound 6]	++ (20% = ++)
39 (DAKSKIEQI; listed as Homo sapiens) [compound 39]	++ (20% = ++)
52 (ELILKHSL; listed as Homo sapiens) [compound 52]	+++ (50% = +++)
26 (DARCKLAEL; listed as Homo sapiens) [compound 26]	++ (20% = ++)
70 (RPKGTPPL; listed as Homo sapiens) [compound 70]	++ (20% = ++)
59 (FDFRGKTKVF; listed as Homo sapiens) [compound 59]	++ (20% = ++)
81 (MYRKEQYL; listed as Homo sapiens) [compound 81]	++ (20% = ++)
93 (LMKEKIQEM; listed as Homo sapiens) [compound 93]	+++ (50% = +++)
4 (QVMPKTGL; listed as Homo sapiens) [compound 4]	++ (20% = ++)
105 (APLKMLALV; listed as Homo sapiens) [compound 105]	++ (20% = ++)
61 (SIKKELVVL; listed as Homo sapiens) [compound 61]	++ (20% = ++)
97 (EPVTKAEM; listed as Homo sapiens) [compound 97]	+++ (50% = +++)
28 (DPKSRLKSL; listed as Homo sapiens) [compound 28]	++ (20% = ++)
